By Kd is commonly meant the concentration at which binding is half-saturated. Low readings indicate higher affinity, high ones lower affinity. Broadly, the stoichiometry N is the number of molecules, sites or subunits per partner or assembly.

Experimental findings from paper PMC8897274 (Structure (London, England : 1993), 2021) are described below.

Positions count from the first letter of the chain named. Ends that are not written are not given here.

Sequences and labels used below:
B1: DNA ligase from S. solfataricus (Lig), wild type (enzyme)
chain: MEFKVIAEYFDKLEKISSRLQLTALLADLLSKSDKTIIDKVVYIIQGKLWPDFLGYPELGIGEKFLIKAISIATNTDENSVENLYKTIGDLGEVARRLKSKQQSTGILGFLGTTSKESLTVDEVYSTLSKVALTTGEGSRDLKIRLLAGLLKKADPLEAKFLVRFVEGRLRVGIGDATVLDAMAIAFGGGQSASEIIERAYNLRADLGNIAKIIVEKGIEALKTLKPQVGIPIRPMLAERLSNPEEILKKMGGNAIVDYKYDGERAQIHKKEDKIFIFSRRLENITSQYPDVVDYVSKYIEGKEFIIEGEIVAIDPESGEMRPFQELMHRKRKSDIYEAIKEYPVNVFLFDLMYYEDVDYTTKPLEARRKLLESIVKPNDYVKIAHHIQANNVEDLKSFFYRAISEGGEGVMVKAIGKDAIYQAGARGWLWIKLKRDYQSEMADTVDLVVVGGFYGKGKRGGKISSLLMAAYNPKTDSFESVCKVASGFSDEQLDELQKKLMEIKRDVKHPRVNSKMEPDIWVEPVYVAEIIGSEITISPLHTCCQDVVEKDAGLSIRFPRFIRWRDDKSPEDATTTDEILEMYNKQPKKKIESPAVDESV
B2: Lig 337 Y-C mutant (enzyme, S. solfataricus)
chain: B1 chain with Y337C
B3: Lig 338 E-C mutant (enzyme, S. solfataricus)
chain: B1 chain with E338C
B4: Lig 145 R-L mutant (enzyme, S. solfataricus)
chain: B1 chain with R145L
B5: Lig 145 R-D mutant (enzyme, S. solfataricus)
chain: B1 chain with R145D
B6: PCNA2 subunit of S. solfataricus PCNA (natural protein)
chain: MKAKVIDAVSFSYILRTVGDFLSEANFIVTKEGIRVSGIDPSRVVFLDIFLPSSYFEGFEVSQEKEIIGFKLEDVNDILKRVLKDDTLILSSNESKLTLTFDGEFTRSFELPLIQVESTQPPSVNLEFPFKAQLLTITFADIIDELSDLGEVLNIHSKENKLYFEVIGDLSTAKVELSTDNGTLLEASGADVSSSYGMEYVANTTKMRRASDSMELYFGSQIPLKLRFKLPQEGYGDFYIAPRAD
B7: PCNA3 subunit of S. solfataricus PCNA (natural protein)
chain: MKVVYDDVRVLKDIIQALARLVDEAVLKFKQDSVELVALDRAHISLISVNLPREMFKEYDVNDEFKFGFNTQYLMKILKVAKRKEAIEIASESPDSVIINIIGSTNREFNVRNLEVSEQEIPEINLQFDISATISSDGFKSAISEVSTVTDNVVVEGHEDRILIKAEGESEVEVEFSKDTGGLQDLEFSKESKNSYSAEYLDDVLSLTKLSDYVKISFGNQKPLQLFFNMEGGGKVTYLLAPKV

Test [1] deals with T1, PCNA1–2 heterodimer of S. solfataricus (S. solfataricus, UniProt P57766 1-249; Q97Z84 1-245).
T1 sequence 1: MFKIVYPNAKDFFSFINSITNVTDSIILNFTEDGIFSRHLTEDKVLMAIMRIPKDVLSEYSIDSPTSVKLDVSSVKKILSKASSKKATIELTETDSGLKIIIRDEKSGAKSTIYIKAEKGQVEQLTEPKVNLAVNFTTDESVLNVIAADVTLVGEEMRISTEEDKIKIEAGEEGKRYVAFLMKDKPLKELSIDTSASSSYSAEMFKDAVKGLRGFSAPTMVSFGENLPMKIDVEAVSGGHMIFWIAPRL
T1 sequence 2: B6 chain
Kind of test: fluorescence polarisation. A general note: Polarisation of emitted light reports the rotation of a fluorescent probe.

Test [2] deals with B7. The test is described as follows: fluorescence polarisation.
For test [3], the target named is T2, PCNA_(1–2-3) heterotrimer of S. solfataricus (S. solfataricus, UniProt P57766 1-249; Q97Z84 1-245; P57765 1-244).
T2 sequence 1: T1 sequence 1
T2 sequence 2: B6 chain
T2 sequence 3: B7 chain
Kind of test: fluorescence polarisation.

Test [4] deals with T2, PCNA_(1–2-3) heterotrimer of S. …. The test is described as follows: SEC-MALS. (In general: In gel filtration, larger molecules generally elute earlier.)
Test [5] addresses T3, PCNA heterotrimer containing PCNA2 S42C (S. solfataricus, UniProt P57766 1-249; Q97Z84 1-245; P57765 1-244, S42C).
T3 sequence 1: T1 sequence 1
T3 sequence 2: B6 chain with S42C
T3 sequence 3: B7 chain
Kind of test: cross-linking.

The target of test [6] is T2, PCNA_(1–2-3) heterotrimer of S. …. Kind of test: SEC.
Test [7] deals with T4, PCNA1 subunit of S. solfataricus PCNA (S. solfataricus, UniProt P57766 1-249).
T4 sequence: T1 sequence 1
The test is described as follows: cryo-EM structure.

Test [8] addresses B1. The test is described as follows: negative stain electron microscopy.
The target in test [9] is B6. The test is described as follows: cryo-EM structure.

KSKQQSTGILGFLGTTS (also: 6-FAM label, position not given here) [fluorescently labeled Lig loop peptide (17 residues, PIP motif)]: the Kd in test [1] amounted to 177 ± 74.4 µM; in test [2], 32.5 ± 6.6 µM; in test [3], 13.1 ± 2.5 µM.
B1: the “stoichiometry N” value in [4] came to 1.
Consider B2, for which, in [5], the binding result is “binds”.
Regarding B3, in test [5], the binding result was “binds”.
As for B4, in [6], the binding result is listed as “binds”.
Still for that read-out and setting: the entry for B5 is “binds”.
Consider B6, for which the binding result in test [7] and in test [8] was “binds” in each case.
For B7, the binding result in test [9], in test [7] and in [8] was “binds” in each case.
